# B1: Azoarcus group I ribozyme (parent)
# chain: GUGCCUUGCGCCGGGAAACCACGCAAGGGAUGGUGUCAAAUUCGGCGAAACCUAAGCGCCCGCCCGGGCGUAUGGCAACGCCGAGCCAAGCUUCGGCGCCUGCGCCGAUGAAGGUGUAGAGACUAGACGGCACCCACCUAAGGCAAACGCUAUGGUGAAGGCAUAGUCCAGGGAGUGGCGAAAGUCACACAAACCGG
# Variants of: B1
# Experiment: reverse-splicing fitness (ratio to wild type); higher = more active; in vitro selection; Mg2+ level not given
# Method in brief: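 An in vitro group I ribozyme library with randomized positions was T7-transcribed and gel-purified. In triplicate, 10 pmol RNA in EPPS pH 7.5 was reacted with 50 pmoles of a 30-nt RNA substrate for 1 h at 37 °C across several added MgCl2 levels (1–48 mM), then stopped with EDTA. Products were reverse transcribed from a substrate-complementary primer, PCR-amplified and sequenced (HiSeq 4000). Fitness is a variant's read proportion after selection over that before, normalised to wild type.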
row,Variant,reverse-splicing fitness
1,C82A A111U A120C A145U C150G C169G U176A,0.00986
2,C82A A111U A120C A145U C150G C169G U176C,0.00626
3,C82A A111U A120C A145U C150G C169G U176G,0.00698
4,C82A A111U A120C A145G C150U C169G U176G,0.00639
5,C82A A111U A120C A145G C150U C169G U176A,0.0138
6,C82A A111U A120C A145G C150U C169G U176C,0.0201
7,C82A A111U A120C C169G U176G,0.00706
8,C82A A111U A120C C169G U176C,0.0298
9,C82A A111U A120C C169G U176A,0.0231
10,C82A A111U A120C A145C C169A U176A,0.0167
11,C82A A111U A120C A145C C169A U176C,0.0175
12,C82A A111U A120C A145C C169A U176G,0.00573
13,C82A A111U A120C A145C C150G C169G,0.00743
14,C82A A111U A120C A145C C150G C169A,0.00897
15,C82A A111U A120C A145C C150G C169U,0.00963
16,C82A A111U A120C C150A C169A U176C,0.0233
17,C82A A111U A120C C150A C169A U176G,0.0108
18,C82A A111U A120C C150A C169A U176A,0.0227
19,C82A A111U A120C A145U C150U,0.0216
20,C82A A111U A120C A145U C150A,0.0107
21,C82A A111U A120C A145U C150G,0.00883

row,Variant,reverse-splicing fitness
1,C82A A111U,0.299
2,C82A A111U A120C C150A C169G U176C,0.0312
3,C82A A111U A120C C150A C169G U176G,0.00775
4,C82A A111U A120C C150A C169G U176A,0.0199
5,C82A A111G C150U C169G U176A,0.0188
6,C82A A111G C150U C169G U176C,0.0194
7,C82A A111G C150U C169G U176G,0.00633
8,C82A A111U A120C A145G C150A C169A,0.0122
9,C82A A111U A120C A145G C150A C169G,0.00972
10,C82A A111U A120C A145G C150A C169U,0.0104
11,C82A A111U A120C C150U C169U U176A,0.0156
12,C82A A111U A120C C150U C169U U176G,0.00737
13,C82A A111U A120C C150U C169U U176C,0.0145
14,C82A A111G C150U C169U U176A,0.0148
15,C82A A111G C150U C169U U176C,0.0136
16,C82A A111G C150U C169U U176G,0.00623
17,C82A A111U A120C A145G U176G,0.00731
18,C82A A111U A120C A145G U176A,0.0187
19,C82A A111U A120C A145G U176C,0.0361
20,C82A A111U A120C A145G C150A C169A U176A,0.0221

# Source: the RNAGym collection of RNA variant scans (doi:10.1093/molbev/msab373)
